How the values were obtained:
galectin-3 [1] = target: T1, galectin-3 (human (endogenous in A2780), UniProt P17931 1-250, biotinylated (printed: 'biotinylated galectin-3')); assay: SPR; platelets exposed to anti-GPVI mAb
galectin-3 [2] = target: T1, galectin-3; assay: SPR
galectin-3 [3] = target: T1, galectin-3; assay: SPR; remark: listed apart in the source
galectin-3 [4] = target: T1, galectin-3; assay: SPR; platelets exposed to Revacept

T1 sequence (P17931 whole entry): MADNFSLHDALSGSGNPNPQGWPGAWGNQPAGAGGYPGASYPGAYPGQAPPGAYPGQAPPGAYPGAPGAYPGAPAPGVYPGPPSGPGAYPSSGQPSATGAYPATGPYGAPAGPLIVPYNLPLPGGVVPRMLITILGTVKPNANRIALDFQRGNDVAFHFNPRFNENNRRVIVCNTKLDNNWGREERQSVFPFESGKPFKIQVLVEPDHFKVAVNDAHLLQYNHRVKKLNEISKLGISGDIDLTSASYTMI

Kd (galectin-3 [1]): 21.4 µM
Kd (galectin-3 [2]): 42.2 µM
Kd (galectin-3 [3]): 48.6 µM
Kd (galectin-3 [4]): 16.2 µM
B1: platelet glycoprotein VI (GPVI) (receptor)
chain: QSGPLPKPSLQALPSSLVPLEKPVTLRCQGPPGVDLYRLEKLSSSRYQDQAVLFIPAMKRSLAGRYRCSYQNGSLWSLPSDQLELVATGVFAKPSLSAQPGPAVSSGGDVTLQCQTRYGFDQFALYKEGDPAPYKNPERWYRASFPIITVTAAHSGTYRCYSFSSRDPYLWSAPSDPLELVVTGTSVTPSRLPTEPPSPVAEFSEATAELTVSFTNEVFTTETSRSITASPKESDSPAGPARQYYTKGNLVRICLGAVILIILAGFLAEDWHSRRKRLRHRGRAVQRPLPPLPPLPLTRKSNGGQDGGRQDVHSRGLCS

— publication PMC8294767 (2021)
